# Reference: publication PMC6131205, “Controlling the regioselectivity and stereospecificity of FAD-dependent polyamine oxidases with the use of amine-attached guide molecules as conformational modulators” (Bioscience Reports, 2018)
# “And” between values parts separate entries of the source, which are not always exact repeats. Equal values may be shown once.
# B1: Fms1 (Saccharomyces cerevisiae S288C) (protein)
# chain: MNTVSPAKKKVIIIGAGIAGLKAASTLHQNGIQDCLVLEARDRVGGRLQTVTGYQGRKYDIGASWHHDTLTNPLFLEEAQLSLNDGRTRFVFDDDNFIYIDEERGRVDHDKELLLEIVDNEMSKFAELEFHQHLGVSDCSFFQLVMKYLLQRRQFLTNDQIRYLPQLCRYLELWHGLDWKLLSAKDTYFGHQGRNAFALNYDSVVQRIAQSFPQNWLKLSCEVKSITREPSKNVTVNCEDGTVYNADYVIITVPQSVLNLSVQPEKNLRGRIEFQPPLKPVIQDAFDKIHFGALGKVIFEFEECCWSNESSKIVTLANSTNEFVEIVRNAENLDELDSMLEREDSQKHTSVTCWSQPLFFVNLSKSTGVASFMMLMQAPLTNHIESIREDKERLFSFFQPVLNKIMKCLDSEDVIDGMRPIENIANANKPVLRNIIVSNWTRDPYSRGAYSACFPGDDPVDMVVAMSNGQDSRIRFAGEHTIMDGAGCAYGAWESGRREATRISDLLK
# Columns and labels:
# Test in all cases: purified protein, by the assay type;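 note: recombinant polyamine oxidases incubated with substrate, product amines (putrescine, 1,3-diaminopropane or butane-1,3-diamine) quantified by HPLC after post-column o-phthalaldehyde derivatization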
# [1] = substrate: CC(=O)NC(C)CCNCCCCN; conditions: other: Supplementary Table 1, pH 9.0, 100 mM Glycine-NaOH, 25°C, Put formation
# Method: (§1) HPLC with post-column o-phthalaldehyde-derivatization was used to determine the concentrations of the reaction products Put and 1,3-diaminopropane (DAP) or butane-1,3-diamine respectively as described in [30]. Fms1 activity was determined essentially as described for human recombinant APAO, but reactions were carried out in 100 mM Glycine-NaOH buffer at pH 9.0 in a water bath at +25°C [29, 30].
# (§2) The reactions were carried out in 1 triplicate at pH 9.0 in 100 mM Glycine-NaOH at +25°C.
# (§3) values for N -Ac-MeSpd enantiomers were determined by using substrate concentrations of 25, 50,
# (§4) for Rac-MeSpd 30 min, (R)-MeSpd 20 min and (S)-MeSpd 40 minutes.
# (§5) The reactions were carried out in triplicate at pH 9.0 in 100 mM Glycine-NaOH at +25°C.
# (§6) values for MeSpd enantiomers were determined by using substrate concentrations of 100, 300, 600,
# (§7) 1000, 2000 and 4000 M. Recombinant Fms1 was 3.8 g/reaction and the incubation time 60
# (§8) incubated for 30 min (half of the reaction time of an ordinary sample). E1 cleavage was monitored
# (§9) by HPLC by measuring Put formation and E2 cleavage by determining butane-1,3-diamine content.
# [2] = substrate: CC(=O)NCCCCNCCCN; conditions: other: substrate alone, no aldehyde, pH 9.0, 25°C
# Method: as §1, §2, §3, §4, §5, §6, §7, §8, §9
# [3] = substrate: CC(=O)NCCCNCCCCN; conditions: other: substrate alone, no aldehyde, pH 9.0, 25°C
# Method: as §1, §2, §3, §4, §5, §6, §7, §8, §9
# [4] = substrate: CC(=O)N[C@@H](C)CCNCCCCN; conditions: other: Supplementary Table 1, pH 9.0, 100 mM Glycine-NaOH, 25°C, Put formation
# Method: as §1, §2, §3, §4, §5, §6, §7, §8, §9
# [5] = substrate: CC(=O)N[C@H](C)CCNCCCCN; conditions: other: Supplementary Table 1, pH 9.0, 100 mM Glycine-NaOH, 25°C, Put formation
# Method: as §1, §2, §3, §4, §5, §6, §7, §8, §9
# [6] = substrate: CC(N)CCNCCCCN; conditions: other: Supplementary Table 2, pH 9.0, 25°C
# Method: as §1, §2, §3, §4, §5, §6, §7, §8, §9
# [7] = substrate: NCCCCNCCCN; conditions: other: substrate alone, no aldehyde, pH 9.0, 25°C
# Method: as §1, §2, §3, §4, §5, §6, §7, §8, §9
protein,measurement,setting,value
B1,Km,[1],140 ± 23 µM
same,Km,[2],122 ± 18 µM
same,kcat,[2],1.4 ± 0.1 s⁻¹
same,kcat/Km,[2],(12 ± 1.8) × 10^3 M^−1s^−1
same,Km,[3],42 ± 8 µM
same,kcat,[3],65 ± 2 s⁻¹
same,kcat/Km,[3],(1600 ± 300) × 10^3 M^−1s^−1
same,Km,[4],109 ± 18 µM
same,Km,[5],155 ± 29 µM
same,Km,[6]; Put formation,502 µM and 555 µM
same,kcat,[6]; Put formation,0.014 ± 0 s⁻¹ and 0.011 ± 0 s⁻¹
same,kcat/Km,[6]; Put formation,28 M⁻¹ s⁻¹ and 20 M⁻¹ s⁻¹
same,Km,"[6]; butane-1,3-diamine formation",467 µM and 606 µM
same,kcat,"[6]; butane-1,3-diamine formation",0.006 ± 0 s⁻¹ and 0.013 ± 0 s⁻¹
same,kcat/Km,"[6]; butane-1,3-diamine formation",13 M⁻¹ s⁻¹ and 22 M⁻¹ s⁻¹
same,Km,[7],534 ± 36 µM and 643 ± 52 µM
